Reference: US20240116985A1 (published 2024)
Starred links: 1 amine or outer side, 2 acyl side, 3 side chain; linkers in the order of their positions; H or OH if unused. Positions of bridges follow the written chain, without caps; N, C: chain ends. Non-standard residues stand in square brackets, D forms with d. Primed or numbered codes have the meaning given here. PyrS2″ = (S)-3-amino-1-((pent-4-en-1-yloxy)carbonyl)pyrrolidine-3-carboxylic acid (stapling residue), C=CCCCOC(=O)N1CC[C@@](N[*:1])(C(=O)[*:2])C1; B5(24) = 2-amino-2-(pent-4-en-1-yl)hept-6-enoic acid, 2,2-bis(4-pentenyl)glycine (stitching residue), C=CCCCC(CCCC=C)(N[*:1])C(=O)[*:2]; B5(3) = 2,2-bis(4-pentenyl)glycine (stitching residue), C=CCCCC(CCCC=C)(N[*:1])C(=O)[*:2]; Phe(3-CF3) = N[C@@H](Cc1cccc(C(F)(F)F)c1)C(=O)O; Phe(3-COOH) = N[C@@H](Cc1cccc(C(=O)O)c1)C(=O)O; Phe(3-OMe) = COc1cccc(C[C@H](N)C(=O)O)c1; Phe(2-Cl) = N[C@@H](Cc1ccccc1Cl)C(=O)O; Bta = N[C@@H](Cc1csc2ccccc12)C(=O)O; Lys(iPr) = CC(C)NCCCC[C@H](N)C(=O)O; αAllylPro = C=CC[C@@]1(C(=O)O)CCCN1; tBuAla = CC(C)(C)C[C@H](N)C(=O)O; Cha = N[C@@H](CC1CCCCC1)C(=O)O; PyrS2(4) = not defined here

T1: B-cat-Halo (UniProt P35222 1-781)
T1 sequence (looked up): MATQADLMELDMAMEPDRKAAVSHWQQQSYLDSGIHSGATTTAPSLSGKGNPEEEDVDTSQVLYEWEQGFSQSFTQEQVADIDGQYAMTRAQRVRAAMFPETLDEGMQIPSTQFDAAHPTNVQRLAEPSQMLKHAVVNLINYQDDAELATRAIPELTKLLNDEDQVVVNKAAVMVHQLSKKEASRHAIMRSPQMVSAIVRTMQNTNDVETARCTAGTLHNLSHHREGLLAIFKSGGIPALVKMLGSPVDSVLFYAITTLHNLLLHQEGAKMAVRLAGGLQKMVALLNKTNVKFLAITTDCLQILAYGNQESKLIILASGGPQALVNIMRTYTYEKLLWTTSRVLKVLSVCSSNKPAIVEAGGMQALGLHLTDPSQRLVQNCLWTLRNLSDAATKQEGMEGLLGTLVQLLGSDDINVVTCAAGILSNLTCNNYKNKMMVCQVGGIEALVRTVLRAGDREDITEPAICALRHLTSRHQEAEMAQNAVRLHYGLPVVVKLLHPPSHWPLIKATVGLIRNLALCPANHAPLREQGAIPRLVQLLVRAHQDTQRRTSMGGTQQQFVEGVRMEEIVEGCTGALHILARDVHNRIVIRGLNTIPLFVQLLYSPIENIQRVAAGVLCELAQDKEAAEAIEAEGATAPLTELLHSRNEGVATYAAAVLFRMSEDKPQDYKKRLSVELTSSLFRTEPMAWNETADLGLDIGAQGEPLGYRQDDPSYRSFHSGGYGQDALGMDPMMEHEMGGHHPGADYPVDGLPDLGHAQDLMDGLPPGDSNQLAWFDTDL

T2: B-cat-Halo (Homo sapiens (Human), UniProt P35222 1-781)
T2 sequence: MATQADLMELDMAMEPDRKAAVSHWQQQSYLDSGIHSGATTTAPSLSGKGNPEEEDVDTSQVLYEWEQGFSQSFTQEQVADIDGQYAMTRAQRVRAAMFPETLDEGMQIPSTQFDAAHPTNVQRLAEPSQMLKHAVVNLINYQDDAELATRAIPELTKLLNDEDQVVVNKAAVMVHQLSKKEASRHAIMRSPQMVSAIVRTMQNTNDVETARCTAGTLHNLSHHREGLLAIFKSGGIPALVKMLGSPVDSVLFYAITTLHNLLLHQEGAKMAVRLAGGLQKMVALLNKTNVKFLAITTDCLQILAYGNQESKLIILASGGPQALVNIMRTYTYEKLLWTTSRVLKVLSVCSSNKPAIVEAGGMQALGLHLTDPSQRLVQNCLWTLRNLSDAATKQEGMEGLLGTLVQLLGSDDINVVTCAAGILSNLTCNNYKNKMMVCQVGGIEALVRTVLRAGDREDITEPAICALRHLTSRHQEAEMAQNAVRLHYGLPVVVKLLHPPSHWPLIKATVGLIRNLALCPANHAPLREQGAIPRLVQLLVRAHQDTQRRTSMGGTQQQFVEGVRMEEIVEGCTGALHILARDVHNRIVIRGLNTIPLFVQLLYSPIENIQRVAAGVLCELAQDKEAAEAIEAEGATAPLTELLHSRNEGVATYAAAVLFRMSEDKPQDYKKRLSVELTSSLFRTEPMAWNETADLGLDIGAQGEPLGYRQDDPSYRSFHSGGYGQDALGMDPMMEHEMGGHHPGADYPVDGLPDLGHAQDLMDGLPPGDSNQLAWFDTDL


target: T1, B-cat-Halo; test: cell-based or functional assay

| NanoBRET Abs IC50 | Binder |
| --- | --- |
| 12.3 µM | Ac-[αAllylPro]D[tBuAla][B5(3)]DDAA[Phe(3-CF3)]L[PyrS2″][Phe(2-Cl)][Bta]Q-NH2 (staple 1-4, 4-11 (inferred)) [I-1122] |
| > 20 µM | Ac-[αAllylPro]D[tBuAla][B5(24)]DDA[Lys(iPr)]FN[PyrS2″][Phe(2-Cl)][Bta]Q-NH2 (staple 1-4, 4-11) [I-1132] |
| 28.5 µM | Ac-[αAllylPro]D[tBuAla][B5(3)]DDAAFL[PyrS2″][Phe(2-Cl)][Bta]Q-NH2 (staple 1-4, 4-11 (inferred); not fully specified (residue 9); printed as Ac-PL3-Asp-Npg-B5-Asp-Asp-Ala-Ala-4F3MeF-Leu-PyrS2-2C1F-BztA-Gln-NH2) [I-1123] |
| 5.4 µM | Ac-[αAllylPro]D[tBuAla][B5(3)]DDAA[Phe(3-OMe)]L[PyrS2″]F[Bta]Q-NH2 (staple 1-4, 4-11 (inferred)) [I-1127] |
| 14.9 µM | Ac-[αAllylPro]D[Cha][B5(24)]DDAAFS[PyrS2″][Phe(2-Cl)][Bta][dT]-NH2 (staple 1-4, 4-11) [I-1136] |
| 7.6 µM | Ac-[αAllylPro]D[tBuAla][B5(24)]DDAAFN[PyrS2″][Phe(2-Cl)][Bta][Lys(iPr)]-NH2 (staple 1-4, 4-11) [I-1130] |
| 8.1 µM | Ac-[αAllylPro]D[tBuAla][B5(3)]DDAA[Phe(3-CF3)]L[PyrS2″]F[Bta]Q-NH2 (staple 1-4, 4-11 (inferred)) [I-1128] |
| > 20 µM | Ac-[αAllylPro]D[Cha][B5(3)]DDAA[Phe(3-CF3)]S[PyrS2″]F[Bta]Q-NH2 (staple 1-4, 4-11 (inferred)) [I-1125] |
| > 20 µM | Ac-[αAllylPro]D[Cha][B5(3)]DDAA[Phe(3-OMe)]S[PyrS2″]F[Bta]Q-NH2 (staple 1-4, 4-11 (inferred)) [I-1124] |
| 26.8 µM | Ac-[αAllylPro]D[Cha][B5(3)]DDAAFS[PyrS2″]F[Bta]Q-NH2 (staple 1-4, 4-11 (inferred); not fully specified (residue 9); printed as Ac-PL3-Asp-Cha-B5-Asp-Asp-Ala-Ala-4F3MeF-Ser-PyrS2-Phe-BztA-Gln-NH2) [I-1126] |
| 18.8 µM | Ac-[αAllylPro]D[tBuAla][B5(24)]DD[Lys(iPr)]AFN[PyrS2″][Phe(2-Cl)][Bta]Q-NH2 (staple 1-4, 4-11) [I-1131] |

target: T2, B-cat-Halo; test: cell-based or functional assay

| NanoBRET Abs IC50 | Binder |
| --- | --- |
| 10.5 µM | Ac-[αAllylPro]D[tBuAla][B5(3)]D[Phe(3-COOH)]AAFS[PyrS2″][Phe(2-Cl)][Bta]N-NH2 (staple 1-4, 4-11) [I-2039] |
| 11.8 µM | Ac-[αAllylPro]D[tBuAla][B5(3)]D[Phe(3-COOH)]AAFS[PyrS2(4)][Phe(2-Cl)][Bta]N-NH2 (staple 1-4, 4-11; not fully specified; reading uncertain; also: staple isomer, earlier eluting HPLC peak) [I-2038] |
| 9.5 µM | Ac-[αAllylPro]D[tBuAla][B5(3)]D[Phe(3-COOH)]AAFN[PyrS2″][Phe(2-Cl)][Bta]F-NH2 (staple 1-4, 4-11) [I-2033] |
| 5 µM | Ac-[αAllylPro]D[tBuAla][B5(3)]D[Phe(3-COOH)]AAFF[PyrS2″][Phe(2-Cl)][Bta]N-NH2 (staple 1-4, 4-11) [I-2037] |
| 12.9 µM | Ac-[αAllylPro]D[tBuAla][B5(3)]D[Phe(3-COOH)]AAFA[PyrS2″][Phe(2-Cl)][Bta]N-NH2 (staple 1-4, 4-11) [I-2036] |
